# Measurements: the DeepSol protein solubility set
# Experiment: soluble on expression in E. coli; label from the status in PepcDB or PDB records
row,Sequence,soluble on expression in E. coli
1,MKTLIKNGKIIKKENQLIEAALWLENGVIHAIGESFDEADFEQVFDANGQLITPGLVDVHVHFREPGFTYKETIKTGSKAAARGGFTTVCAMPNLNPVPDTAEKLSEVYDLIQKDAVVKVLQYAPITEELRSEVLTNQKALKEAGAFAFTNDGVGVQTAGTMYLAMKEAAALNMALVAHTEDESLLFGGVMHEGEVSKKLGLPGILSATEASQIARDITLAKETGVHYHVCHVSTEESVRVIRDAKKAGIHVTAEVSPHHLILVDEDIPGDEGFWKMNPPLRGLADRQALIDGLLDGTIDCIATDHAPHGLEEKQQSFLNAPFGIVGSETAFQLIYTNFVETGIFTLEQVIDWMAVKPAEIFGLNAGTLTIGAPADIAVFDLATAAPIDAEAFESMAVNTPFTGWTVKGKTLMTFVDGALAWSEEAQ,not soluble
2,MAHHHHHHMGTLEAQTQGPGSMMETDATAEAAAVAYEDIITRFGAAPITDDLLKRFETVTGTKAHPMLRRGLFYAHRDFEEFLSYYEKGHPIYIYTGRGPSSGALHLGHLLPFIFTKYLQDAFKCYVVIQITDDEKFLRNRSLSYAEVDSYTRENIKDIIACGFDPDKTFIFINSQYLSLKNRYRFSCLVDRMLPISQLRASFGFSNDANVGYAAFPPKQMLPVYSTYFDGLPFTRVPLPVGTGNEDAADAVSTKKASKKTPKKDAVLSPVHVVEELFPDSKRYQKAMCLIASGIEQDPYFRLARDLAPRMGHPKNAYLLGKFLPGLQGSGTKMSASDPNSAIYLTDTPAQIKNKINRYAFSGGRDTEEEHRAFGADLSVDVSVRYLEVFMKDDAELEKLKADYKTGKLLTGEVKATLIGILQGLIKEHAERRDKVDTTMIESFTVKKELQ,soluble
3,MSLKNEIQFEVFGDYALFTDPLTKIGGEKLSYSVPTYQALKGIVESIYWKPTIIFTIDKLRVMKPIQMESKGVRPIDYGGGNTLAHYTYLKDVHYQVKAHFDFNFNRPDLAFDRNEGKHYSILQRSLKAGGRRDIFLGTRECQGYVAPCEFGSGSGYYDGQGEYRLGTMVHGFNYPDETGQNQLDVRLWPAVMNDGYIKFPKPEDCTMIRPIKEMEPKEFKRDDIQSVEQLSYEVGGEEGHHHHHH,soluble
4,MKDAQLNTLCQRHQAVLINSASNSITVAVVDAPSHALLDALHFATQKQIDIVCWTRQQMENHRHKPDQAPSANAAKGGETAAQLLNQTLRSAMAKRASDIHLEPGASRYRIRLRIDGVLHILQDIAKETGLALTARLKVLGNLDIAEHRLPQDGQFTVDLAGDSISFRIATLPCKEGEKVVLRLLHQVEQTLDLDTLGMYGAQLTAFRQALQQPQGLVLVTGPTGSGKTVTLYSALQTRNTPGINLCSVEDPIEIPLDGINQTQIHPRAGLTFQNVLRALLRQDPDIIMVGEIRDGDTAEIAIKAAQTGHLVLSTLHTNSTSETLIRLQQMGVARWMISSALTLVVAQRLVRKLCPHCKQRLSDPVVLSPNLWPSAIPRWQASGCQHCYHGFYGRTALFEVLTVTPALRQLIASGASAQALEAHLQQTGTGTLFENGCRAVEQGMTSFEEILCVLGMPHER,not soluble
5,MSLQNFDFNEALKGIQAGKPITGSDGVLAPLIKQLTEAALNAEIQSHLEQSSTSNRRNGYSKKTVKSAAGSFELETPRDRNGEYEPVLVKKHQTKLTAEIDSRILSLFSHGMSYRDIRHHIAEIYQLEVSEATISSITDELIPQLKAWQSRPLDSVYPFVWLDAIHYKVKDEGRYVSKAIYTLLALNTEGKKELIGLYCSESEGANYWLSVLTDLHNRGVQDILIACVDGLKGFPEAINAIFPNTEVQLCVIHQIRNSIRYVASRDQKAFMRDLKPVYKAVNKESAELALDDLEAVWGDQYPAVIKSWRDKWHLLSAYFKYPEAVRKPIYTTNAVEAVHRQFRKLTKTKGAFPNETSLLKLLYVGMLNASAKWTMPIRNWGQTMMQLSIYFPGRLDSVMREGHHHHHH,soluble
6,MPVKVLNFPSVVLQHFLVGLTSTELFELTQCSLKSKDRVRPYEKSNKTFRMAVDFQRNWVDIRGVYRFYVKELVDGKLPKTYGKMGVREFGDKKVQVELDENEKTINIFWPTTEKEDRTFAVMKVAEHFIYTLGLGEFESVTLGQENHAGRIIDWANEKNLNIANFTIGNVDKEHDDVDKVAEKLYSASFFKKVSANFKCLINPTEAFKPNEFLPGIPKNTNMIFFHGAHWMTIDTLKDFTACSVILYDCKFTNKDINEFIKLWKNKEFERIFYISINVPQGSGFKLTEVIAGLDGFGEIENDATTMKREDGKEIEVSVLDEKKQIRIVVD,not soluble
7,DVTPRRDAEYPPPEFLEAMKPLREICIKKTGVTEEAIIEFSDGKVHEDENLKCYMNCLFHEAKVVDDTGHVHLEKLHDALPDSMHDIALHMGKRCLYPEGENLCEKAFWLHKCWKESDPKHYFLI,soluble
8,MSLWEFYMPTDVFFGEKILEKRGNIIDLLGKRALVVTGKSSSKKNGSLDDLKKLLDETEISYEIFDEVEENPSFDNVMKAVERYRNDSFDFVVGLGGGSPMDFAKAVAVLLKEKDLSVEDLYDREKVKHWLPVVEIPTTAGTGSEVTPYSILTDPEGNKRGCTLMFPVYAFLDPRYTYSMSDELTLSTGVDALSHAVEGYLSRKSTPPSDALAIEAMKIIHRNLPKAIEGNREARKKMFVASCLAGMVIAQTGTTLAHALGYPLTTEKGIKHGKATGMVLPFVMEVMKEEIPEKVDTVNHIFGGSLLKFLKELGLYEKVAVSSEELEKWVEKGSRAKHLKNTPGTFTPEKIRNIYREALGVEGGSHHHHHH,soluble
9,MRLRSMTKVLVLGARFGGLSAAYALKRLAGNKAEIKVINNTRFSYFRPALPHVATGVINENDVMVDLTKALPEKRINFQQGTVEKIDASGGLVYYTKPDGDKAEEDYDYLIIALGAHLGTELVKGWDKYGYSVCELDYALKLREKLKDFKGGTIAIGSGLFYQGKSPKPKVPENYVPVADAACEGPIFEMSLMLSGYFKKKGMLNKVKFVVFSPGEYLSDLSTMSRKIVREMYKQMGIELVDNFRIKEIRENEIADEAGKTIKADLTILIPPYTGNPALKNSTPDLIDDGGFVPTDLNMVSINYDNVYAVGDANSLTVPKLGYLAVKTGNIAAQHLATRLGVQVKVDQYYPTIICVADNPFEGFGIAVKDDTWYGGTTSIAAPSPINHIKKELFHKYFIWTKGDMALEKFLASWLEHHHHHH,soluble
10,MFQTFEGDLKWHHHNITYWIQNYSEDLPRAVIDDAFARAFALWSAVTPLTFTRVYSRDADIVIQFGVAEHGDGYPFDGKDGLLAHAFPPGPGIQGDAHFDDDELWSLGKGQGYSLFLVAAHEFGHALGLDHSSVPEALMYPMYRFTEGPPLHKDDVNGIRHLY,soluble
11,MELIQDTSRPPLEYVKGVPLIKYFAEALGPLQSFQARPDDLLINTYPKSGTTWVSQILDMIYQGGDLEKCNRAPIYVRVPFLEVNDPGEPSGLETLKDTPPPRLIKSHLPLALLPQTLLDQKVKVVYVARNPKDVAVSYYHFHRMEKAHPEPGTWDSFLEKFMAGEVSYGSWYQHVQEWWELSRTHPVLYLFYEDMKENPKREIQKILEFVGRSLPEETMDFMVQHTSFKEMKKNPMTNYTTVPQELMDHSISPFMRKGMAGDWKTTFTVAQNERFDADYAEKMAGCSLSFRSEL,soluble
12,MGDVIKVLDAQVRESLSGLPELHINFRARIILNPEDPRVDSIPPLEEVRIATYTRKKIGDIEPGDRFIEIRGTIAKVYRVLTYDACPECKKKVDYDPGTGVWICPEHGEVEPIKMTILDFGLDDGTGYIRVTLFGDDAEELLGVSSEEIAEKIKELENSGLTTKEAARKLAEEEFYKIIGKEIVVRGNVIEDRFLGLILRASSWEEVDYRKEIENIKEELEKLGVMLEHHHHHH,soluble
13,MNEQIRTILAEDGTKTSKIRKLLLLGLTHREIADLVTRGNRGFVWNVYKRMRDEGLIVSAGTPTATTTPELDYSFRRKFGVEIEAYNCTCQRLVRELTEAGIEVASERYNHDLRPHWKLVTDSSLNGNDTFELVSPILEGEDGLEKLERVCWVLDSCNVKINGSCGLHVHMNAEDFNITTWRNLLLSYKHAEAEIDKFMPASRRGGSNTYCGSLIQFPDERIRSARNIRELQGLFPSRYMKVNLQAYSRHRTVEFRQHSGTISFTKIENWVCFLDRMITFASVGSLPAGIRLEDFPFLGEKQKLYYKLRTKKLAV,not soluble
14,TRNFEWIVGGNITRSRDKIKSLGGEEQIVLSYDNGVQMVNRVGESPYQFYGYQADGVYSTQAEADAANLSNRTGRRYNAGDVRFVDQNGDNRIDDKDRILLGSAAPSYFGGFYTQLKYKGFALSAEFSYSKDNIAYNAVRQQLEAVSTTNNQSIAAVNRWTVEGQKTDMPKATWKDPVGNSYFSSRWMEDASYLRMKNVTLSYTFSKTLWNFFRSGTIYVTGENLLTFTDYLGMDPEFSYSYAENMQGFDNAKLMQPKTVKMGVNLKF,not soluble
15,MSDRQAALDMALKQIEKQFGKGSIMKLGEQAERKVSTVSSGSLALDVALGVGGYPRGRIIEIYGPESSGKTTVSLHAIAEVQRQGGQAAFIDAEHAMDPVYAQKLGVNIDELLLSQPDTGEQGLEIAEALVRSGAVDIIVIDSVAALVPKAEIEGDMGDSHVGLQARLMSQALRKLSGAINKSKTIAIFINQIREKVGVMFGNPETTPGGRALKFYSTVRLEVRRAEQLKQGNDIVGNKTKVKVVKNKVAPPFRVAEVDIMYGEGISREGEILDMASELDIVQKSGAWYSYNEERLGQGRENSKQFLKENTDLREEIAFFIREHHGISEDSGAEGMEDPNLLD,not soluble
16,MSEPSEKKQKVATSSLEQLKKAGTHVVADSGDFEAISKYEPQDSTTNPSLILAASKLEKYARFIDAAVEYGRKHGKTDHEKIENAMDKILVEFGTQILKVVPGRVSTEVDARLSFDKKATVKKALHIIKLYKDAGVPKERVLIKIASTWEGIQAARELEVKHGIHCNMTLLFSFTQAVACAEANVTLISPFVGRIMDFYKALSGKDYTAETDPGVLSVKKIYSYYKRHGYATEVMAASFRNLDELKALAGIDNMTLPLNLLEQLYESTDPIENKLNSESAKEEGVEKVSFINDEPHFRYVLNEDQMATEKLSDGIRKFSADIEALYKLVEEKMLEHHHH,soluble
17,TAVSLEQLLIAREQRVALQQQCLHEYQQTLLSLTLTAVGPVKKNALLDYVFAKALANITACFNKLSVTATAQFIRPLQTGHEALFVLPIDAKILKRAMIELENSSPLARLWDIDVISQEGHYSRGEFGFAERTCLMCAESAKICARSRRHSIDDLLSEIHTRAQQ,not soluble
18,LRKQVELLFNTRYAKAIGISEPVKVPYSKFLMHPEELFVVGLPEGISLRRPNCFGIAKLRKILEASNSIQFVIKRPELLTEGVKEP,soluble
19,MASMPSRTALSPGVLSPTRPVPNWIARPEYVGKPAAQEGSEPWVQTPEVIEKMRVAGRIAAGALAEAGKAVAPGVTTDELDRIAHEYLVDNGAYPSTLGYKGFPKSCCTSLNEVICHGIPDSTVITDGDIVNIDVTAYIGGVHGDTNATFPAGDVADEHRLLVDRTREATMRAINTVKPGRALSVIGRVIESYANRFGYNVVRDFTGHGIGTTFHNGLVVLHYDQPAVETIMQPGMTFTIEPMINLGALDYEIWDDGWTVVTKDRKWTAQFEHTLLVTDTGVEILTCL,soluble
20,MQAGARLARQDNAMADAPAPAPKRARAGRPPTLAAPRERILEEAARLFARSGYENSSVADLAAAIGVSKAALYHYFPTKQDIYDAIILETLAGLLQAVTREVERQREACERLRAFMVGHARYFARHHEQFVTMLIGYSGMALPERADAAQLRDRYEQLLRDLLEQGMATGTLRRLDVAATGRAVLSMLNWMVRWYKPGQGDSAEQIADGYYDLLFNGLRI,soluble
21,SNAMKAPELQIQQWFNSATDLTLADLRGKVIVIEAFQMLCPGCVMHGIPLAQKVRAAFPEDKVAVLGLHTVFEHHEAMTPISLKAFLHEYRIKFPVGVDQPGDGAMPRTMAAYQMRGTPSLLLIDKAGDLRAHHFGDVSELLLGAEIATLLGEAAPSV,soluble
